Results reported in US20240279318A1 (NANJING LEGEND BIOTECH, published 2024).

What was measured:
[1] = target: T1, AFP158/HLA-A*02:01 complex (human); experiment: SPR, fold vs AS170036 VL1VH1;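 note: crude scFv muteins immobilised on a sensor chip, peptide–MHC complex passed over at several concentrations, binding then buffer-driven dissociation, KD estimated from on- and off-rates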
T1 construct: flowed as analyte in SPR
Protocol: The experiment was carried out as follows. The crude scFv protein were captured onto the sensorchip. Different concentrations (320, 160, 40 nM) of AFP158/HLA-A*02:01 complex flowed over the sensorchip surface, and were allowed to bind the antibody fragment for 100 s followed by injection of the running buffer to allow dissociation of the complex. On-rate (kd) and off-rate (kd) were calculated based on association and dissociation curve, and were used to estimate the equilibrium dissociation constant (KD).
The crude scFv muteins were then subjected to SPR affinity measurement by the method mentioned above.

[2] = target: T1, AFP158/HLA-A*02:01 complex; experiment: SPR, crude scFv captured, pMHC analyte;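 note: complex injected at several concentrations over the chip, association phase then running buffer for dissociation, KD derived from on- and off-rates computed from both curves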

Binder	Affinity increase [1] [fold]	Kd [2] [nM]	koff [2] [s⁻¹]	kon [2] [M⁻¹ s⁻¹]
AS170036 VL1VH1-56N98Q108S (scFv, also called 57-AS170036 VL1VH1-56N98Q108S) scFv: QSALTQPRSVSGSPGQSVTISCAGTSSDVGSENYVSWYQQHPGKAPKLMIYQVNKRASGVPDRFSGSKSGNTASLTISGLQAEDEADYYCASYRSSDQNIVFGGGTKLTVLGGGGSGGGGSGGGGSEVQLVESGGGLVQPGGSLRLSCAASGFTFSSYAMSWVRQAPGKGLEWVSTINSGTNSPYYADSVKGRFTISRDNSKNTLYLQMNSLRAEDTAVYYCAKNFFDGSWFLSPPAMDYWGQGTLVTVSSHHHHHH	20.8	11	0.0019	180000
AS170036 VL1VH1-57H98I108A (scFv, also called 61-AS170036 VL1VH1-57H98I108A) scFv: QSALTQPRSVSGSPGQSVTISCAGTSSDVGSENYVSWYQQHPGKAPKLMIYQVNKRASGVPDRFSGSKSGNTASLTISGLQAEDEADYYCASYRSSDINIVFGGGTKLTVLGGGGSGGGGSGGGGSEVQLVESGGGLVQPGGSLRLSCAASGFTFSSYAMSWVRQAPGKGLEWVSTINSGTGHPYYADSVKGRFTISRDNSKNTLYLQMNSLRAEDTAVYYCAKNFFDGSWFLAPPAMDYWGQGTLVTVSSHHHHHH	67.6	3.3	0.00076	230000
AS170036 VL1VH1-56Y98I108A (scFv, also called 43-AS170036 VL1VH1-56Y98I108A) scFv: QSALTQPRSVSGSPGQSVTISCAGTSSDVGSENYVSWYQQHPGKAPKLMIYQVNKRASGVPDRFSGSKSGNTASLTISGLQAEDEADYYCASYRSSDINIVFGGGTKLTVLGGGGSGGGGSGGGGSEVQLVESGGGLVQPGGSLRLSCAASGFTFSSYAMSWVRQAPGKGLEWVSTINSGTYSPYYADSVKGRFTISRDNSKNTLYLQMNSLRAEDTAVYYCAKNFFDGSWFLAPPAMDYWGQGTLVTVSSHHHHHH	212	1.1	0.00025	240000
AS170036 VL1VH1-56Y98F108D (scFv, also called 41-AS170036 VL1VH1-56Y98F108D) scFv: QSALTQPRSVSGSPGQSVTISCAGTSSDVGSENYVSWYQQHPGKAPKLMIYQVNKRASGVPDRFSGSKSGNTASLTISGLQAEDEADYYCASYRSSDFNIVFGGGTKLTVLGGGGSGGGGSGGGGSEVQLVESGGGLVQPGGSLRLSCAASGFTFSSYAMSWVRQAPGKGLEWVSTINSGTYSPYYADSVKGRFTISRDNSKNTLYLQMNSLRAEDTAVYYCAKNFFDGSWFLDPPAMDYWGQGTLVTVSSHHHHHH	110	2	0.00054	270000
AS170036 VL1VH1-57H98F108S (scFv, also called 60-AS170036 VL1VH1-57H98F108S) scFv: QSALTQPRSVSGSPGQSVTISCAGTSSDVGSENYVSWYQQHPGKAPKLMIYQVNKRASGVPDRFSGSKSGNTASLTISGLQAEDEADYYCASYRSSDFNIVFGGGTKLTVLGGGGSGGGGSGGGGSEVQLVESGGGLVQPGGSLRLSCAASGFTFSSYAMSWVRQAPGKGLEWVSTINSGTGHPYYADSVKGRFTISRDNSKNTLYLQMNSLRAEDTAVYYCAKNFFDGSWFLSPPAMDYWGQGTLVTVSSHHHHHH	66.2	3.4	0.00068	200000
AS170036 VL1VH1-56Y98F108A (scFv, also called 40-AS170036 VL1VH1-56Y98F108A) scFv: QSALTQPRSVSGSPGQSVTISCAGTSSDVGSENYVSWYQQHPGKAPKLMIYQVNKRASGVPDRFSGSKSGNTASLTISGLQAEDEADYYCASYRSSDFNIVFGGGTKLTVLGGGGSGGGGSGGGGSEVQLVESGGGLVQPGGSLRLSCAASGFTFSSYAMSWVRQAPGKGLEWVSTINSGTYSPYYADSVKGRFTISRDNSKNTLYLQMNSLRAEDTAVYYCAKNFFDGSWFLAPPAMDYWGQGTLVTVSSHHHHHH	142	1.6	0.00038	240000
AS170036 VL1VH1-56Y98I108D (scFv, also called 44-AS170036 VL1VH1-56Y98I108D) scFv: QSALTQPRSVSGSPGQSVTISCAGTSSDVGSENYVSWYQQHPGKAPKLMIYQVNKRASGVPDRFSGSKSGNTASLTISGLQAEDEADYYCASYRSSDINIVFGGGTKLTVLGGGGSGGGGSGGGGSEVQLVESGGGLVQPGGSLRLSCAASGFTFSSYAMSWVRQAPGKGLEWVSTINSGTYSPYYADSVKGRFTISRDNSKNTLYLQMNSLRAEDTAVYYCAKNFFDGSWFLDPPAMDYWGQGTLVTVSSHHHHHH	152	1.5	0.00038	260000
AS170036 VL1VH1-57H98F108D (scFv, also called 59-AS170036 VL1VH1-57H98F108D) scFv: QSALTQPRSVSGSPGQSVTISCAGTSSDVGSENYVSWYQQHPGKAPKLMIYQVNKRASGVPDRFSGSKSGNTASLTISGLQAEDEADYYCASYRSSDFNIVFGGGTKLTVLGGGGSGGGGSGGGGSEVQLVESGGGLVQPGGSLRLSCAASGFTFSSYAMSWVRQAPGKGLEWVSTINSGTGHPYYADSVKGRFTISRDNSKNTLYLQMNSLRAEDTAVYYCAKNFFDGSWFLDPPAMDYWGQGTLVTVSSHHHHHH	124	1.8	0.00053	290000
AS170036 VL1VH1-56Y98I108S (scFv, also called 45-AS170036 VL1VH1-56Y98I108S) scFv: QSALTQPRSVSGSPGQSVTISCAGTSSDVGSENYVSWYQQHPGKAPKLMIYQVNKRASGVPDRFSGSKSGNTASLTISGLQAEDEADYYCASYRSSDINIVFGGGTKLTVLGGGGSGGGGSGGGGSEVQLVESGGGLVQPGGSLRLSCAASGFTFSSYAMSWVRQAPGKGLEWVSTINSGTYSPYYADSVKGRFTISRDNSKNTLYLQMNSLRAEDTAVYYCAKNFFDGSWFLSPPAMDYWGQGTLVTVSSHHHHHH	81.5	2.8	0.0005	180000
AS170036 VL1VH1-56Y98Q108S (scFv, also called 48-AS170036 VL1VH1-56Y98Q108S) scFv: QSALTQPRSVSGSPGQSVTISCAGTSSDVGSENYVSWYQQHPGKAPKLMIYQVNKRASGVPDRFSGSKSGNTASLTISGLQAEDEADYYCASYRSSDQNIVFGGGTKLTVLGGGGSGGGGSGGGGSEVQLVESGGGLVQPGGSLRLSCAASGFTFSSYAMSWVRQAPGKGLEWVSTINSGTYSPYYADSVKGRFTISRDNSKNTLYLQMNSLRAEDTAVYYCAKNFFDGSWFLSPPAMDYWGQGTLVTVSSHHHHHH	67.4	3.3	0.00055	160000
AS170036 VL1VH1-57H98Q108A (scFv, also called 64-AS170036 VL1VH1-57H98Q108A) scFv: QSALTQPRSVSGSPGQSVTISCAGTSSDVGSENYVSWYQQHPGKAPKLMIYQVNKRASGVPDRFSGSKSGNTASLTISGLQAEDEADYYCASYRSSDQNIVFGGGTKLTVLGGGGSGGGGSGGGGSEVQLVESGGGLVQPGGSLRLSCAASGFTFSSYAMSWVRQAPGKGLEWVSTINSGTGHPYYADSVKGRFTISRDNSKNTLYLQMNSLRAEDTAVYYCAKNFFDGSWFLAPPAMDYWGQGTLVTVSSHHHHHH	128	1.8	0.00041	230000
AS170036 VL1VH1-56Y98Q108A (scFv, also called 46-AS170036 VL1VH1-56Y98Q108A) scFv: QSALTQPRSVSGSPGQSVTISCAGTSSDVGSENYVSWYQQHPGKAPKLMIYQVNKRASGVPDRFSGSKSGNTASLTISGLQAEDEADYYCASYRSSDQNIVFGGGTKLTVLGGGGSGGGGSGGGGSEVQLVESGGGLVQPGGSLRLSCAASGFTFSSYAMSWVRQAPGKGLEWVSTINSGTYSPYYADSVKGRFTISRDNSKNTLYLQMNSLRAEDTAVYYCAKNFFDGSWFLAPPAMDYWGQGTLVTVSSHHHHHH	183	1.2	0.00028	230000
AS170036 VL1VH1-56Y98F108S (scFv, also called 42-AS170036 VL1VH1-56Y98F108S) scFv: QSALTQPRSVSGSPGQSVTISCAGTSSDVGSENYVSWYQQHPGKAPKLMIYQVNKRASGVPDRFSGSKSGNTASLTISGLQAEDEADYYCASYRSSDFNIVFGGGTKLTVLGGGGSGGGGSGGGGSEVQLVESGGGLVQPGGSLRLSCAASGFTFSSYAMSWVRQAPGKGLEWVSTINSGTYSPYYADSVKGRFTISRDNSKNTLYLQMNSLRAEDTAVYYCAKNFFDGSWFLSPPAMDYWGQGTLVTVSSHHHHHH	56.3	4	0.00074	190000
AS170036 VL1VH1-57H98F108A (scFv, also called 58-AS170036 VL1VH1-57H98F108A) scFv: QSALTQPRSVSGSPGQSVTISCAGTSSDVGSENYVSWYQQHPGKAPKLMIYQVNKRASGVPDRFSGSKSGNTASLTISGLQAEDEADYYCASYRSSDFNIVFGGGTKLTVLGGGGSGGGGSGGGGSEVQLVESGGGLVQPGGSLRLSCAASGFTFSSYAMSWVRQAPGKGLEWVSTINSGTGHPYYADSVKGRFTISRDNSKNTLYLQMNSLRAEDTAVYYCAKNFFDGSWFLAPPAMDYWGQGTLVTVSSHHHHHH	146	1.5	0.0004	260000
AS170036 VL1VH1-57H98I108S (scFv, also called 63-AS170036 VL1VH1-57H98I108S) scFv: QSALTQPRSVSGSPGQSVTISCAGTSSDVGSENYVSWYQQHPGKAPKLMIYQVNKRASGVPDRFSGSKSGNTASLTISGLQAEDEADYYCASYRSSDINIVFGGGTKLTVLGGGGSGGGGSGGGGSEVQLVESGGGLVQPGGSLRLSCAASGFTFSSYAMSWVRQAPGKGLEWVSTINSGTGHPYYADSVKGRFTISRDNSKNTLYLQMNSLRAEDTAVYYCAKNFFDGSWFLSPPAMDYWGQGTLVTVSSHHHHHH	26.4	8.5	0.0014	160000
AS170036 VL1VH1-57H98I108D (scFv, also called 62-AS170036 VL1VH1-57H98I108D) scFv: QSALTQPRSVSGSPGQSVTISCAGTSSDVGSENYVSWYQQHPGKAPKLMIYQVNKRASGVPDRFSGSKSGNTASLTISGLQAEDEADYYCASYRSSDINIVFGGGTKLTVLGGGGSGGGGSGGGGSEVQLVESGGGLVQPGGSLRLSCAASGFTFSSYAMSWVRQAPGKGLEWVSTINSGTGHPYYADSVKGRFTISRDNSKNTLYLQMNSLRAEDTAVYYCAKNFFDGSWFLDPPAMDYWGQGTLVTVSSHHHHHH	45.9	4.9	0.0012	250000
AS170036 VL1VH1-56Y98Q108D (scFv, also called 47-AS170036 VL1VH1-56Y98Q108D) scFv: QSALTQPRSVSGSPGQSVTISCAGTSSDVGSENYVSWYQQHPGKAPKLMIYQVNKRASGVPDRFSGSKSGNTASLTISGLQAEDEADYYCASYRSSDQNIVFGGGTKLTVLGGGGSGGGGSGGGGSEVQLVESGGGLVQPGGSLRLSCAASGFTFSSYAMSWVRQAPGKGLEWVSTINSGTYSPYYADSVKGRFTISRDNSKNTLYLQMNSLRAEDTAVYYCAKNFFDGSWFLDPPAMDYWGQGTLVTVSSHHHHHH	122	1.8	0.00044	240000
